Data on three molecules can be found in patent publication US20140010832A1.

Targets include Fibrinogen; Osteopontin; Vitronectin; Fibronectin; Tenascin C.
What all share (experiment): ELISA; cytokine coated, ECM protein 0.02 to 320 nM, KD by non-linear fit
For orientation: In an ELISA, binding on a coated surface is turned into a signal by an enzyme label.

Chain of Tenascin C (P24821 23-2201): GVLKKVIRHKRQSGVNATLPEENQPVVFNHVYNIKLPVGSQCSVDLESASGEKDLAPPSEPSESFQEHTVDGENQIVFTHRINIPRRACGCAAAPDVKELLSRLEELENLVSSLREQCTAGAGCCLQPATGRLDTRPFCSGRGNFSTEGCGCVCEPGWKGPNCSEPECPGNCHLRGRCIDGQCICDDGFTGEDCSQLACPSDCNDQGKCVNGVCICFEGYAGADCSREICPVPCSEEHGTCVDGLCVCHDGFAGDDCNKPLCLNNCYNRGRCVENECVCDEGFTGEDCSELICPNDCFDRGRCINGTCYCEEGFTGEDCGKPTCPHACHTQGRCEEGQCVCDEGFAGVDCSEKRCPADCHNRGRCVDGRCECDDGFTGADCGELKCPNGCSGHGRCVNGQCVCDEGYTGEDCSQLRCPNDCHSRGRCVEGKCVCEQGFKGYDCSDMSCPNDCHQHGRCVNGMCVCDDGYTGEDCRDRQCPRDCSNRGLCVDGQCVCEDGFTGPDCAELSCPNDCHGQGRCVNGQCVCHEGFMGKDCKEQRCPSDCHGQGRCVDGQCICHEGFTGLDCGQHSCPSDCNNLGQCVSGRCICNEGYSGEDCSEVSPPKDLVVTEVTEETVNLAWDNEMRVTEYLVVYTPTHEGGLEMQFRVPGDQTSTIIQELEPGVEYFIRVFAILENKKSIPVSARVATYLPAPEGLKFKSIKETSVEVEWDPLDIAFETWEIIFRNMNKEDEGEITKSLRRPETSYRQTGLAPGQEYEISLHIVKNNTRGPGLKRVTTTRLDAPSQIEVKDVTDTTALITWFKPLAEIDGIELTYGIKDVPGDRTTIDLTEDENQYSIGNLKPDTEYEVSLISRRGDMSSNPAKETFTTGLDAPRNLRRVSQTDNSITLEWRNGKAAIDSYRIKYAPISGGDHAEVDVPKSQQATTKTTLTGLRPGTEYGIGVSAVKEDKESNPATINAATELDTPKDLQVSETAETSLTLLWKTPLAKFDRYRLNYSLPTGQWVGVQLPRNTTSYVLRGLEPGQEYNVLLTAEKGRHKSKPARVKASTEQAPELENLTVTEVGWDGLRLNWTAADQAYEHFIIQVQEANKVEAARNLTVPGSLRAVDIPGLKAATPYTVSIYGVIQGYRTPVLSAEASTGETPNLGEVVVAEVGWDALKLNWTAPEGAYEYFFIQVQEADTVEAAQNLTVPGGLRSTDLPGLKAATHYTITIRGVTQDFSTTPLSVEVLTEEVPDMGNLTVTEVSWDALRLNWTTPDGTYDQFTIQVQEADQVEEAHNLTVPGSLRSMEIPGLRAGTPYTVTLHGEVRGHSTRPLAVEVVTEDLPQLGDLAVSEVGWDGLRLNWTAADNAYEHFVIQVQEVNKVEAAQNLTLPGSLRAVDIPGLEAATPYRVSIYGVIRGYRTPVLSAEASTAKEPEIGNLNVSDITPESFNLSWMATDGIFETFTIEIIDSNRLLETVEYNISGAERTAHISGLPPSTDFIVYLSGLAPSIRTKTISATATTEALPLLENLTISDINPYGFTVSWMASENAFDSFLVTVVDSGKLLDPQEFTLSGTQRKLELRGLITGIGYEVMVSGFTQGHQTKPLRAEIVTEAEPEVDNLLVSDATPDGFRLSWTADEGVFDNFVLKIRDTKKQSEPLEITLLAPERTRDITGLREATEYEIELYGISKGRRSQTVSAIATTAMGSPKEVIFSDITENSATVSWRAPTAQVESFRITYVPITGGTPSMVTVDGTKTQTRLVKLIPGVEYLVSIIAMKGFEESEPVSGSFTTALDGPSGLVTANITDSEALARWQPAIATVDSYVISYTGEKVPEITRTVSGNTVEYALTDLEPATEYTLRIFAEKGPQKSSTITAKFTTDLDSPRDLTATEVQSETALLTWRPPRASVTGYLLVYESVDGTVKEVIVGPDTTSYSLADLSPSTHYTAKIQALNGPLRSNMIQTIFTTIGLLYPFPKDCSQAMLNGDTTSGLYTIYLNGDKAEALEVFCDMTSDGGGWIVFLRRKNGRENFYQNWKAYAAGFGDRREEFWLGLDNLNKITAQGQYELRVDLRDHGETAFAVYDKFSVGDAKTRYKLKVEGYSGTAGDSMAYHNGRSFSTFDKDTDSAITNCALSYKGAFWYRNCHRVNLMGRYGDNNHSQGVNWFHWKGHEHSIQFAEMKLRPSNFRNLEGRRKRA
Chain of Vitronectin (P04004 20-478): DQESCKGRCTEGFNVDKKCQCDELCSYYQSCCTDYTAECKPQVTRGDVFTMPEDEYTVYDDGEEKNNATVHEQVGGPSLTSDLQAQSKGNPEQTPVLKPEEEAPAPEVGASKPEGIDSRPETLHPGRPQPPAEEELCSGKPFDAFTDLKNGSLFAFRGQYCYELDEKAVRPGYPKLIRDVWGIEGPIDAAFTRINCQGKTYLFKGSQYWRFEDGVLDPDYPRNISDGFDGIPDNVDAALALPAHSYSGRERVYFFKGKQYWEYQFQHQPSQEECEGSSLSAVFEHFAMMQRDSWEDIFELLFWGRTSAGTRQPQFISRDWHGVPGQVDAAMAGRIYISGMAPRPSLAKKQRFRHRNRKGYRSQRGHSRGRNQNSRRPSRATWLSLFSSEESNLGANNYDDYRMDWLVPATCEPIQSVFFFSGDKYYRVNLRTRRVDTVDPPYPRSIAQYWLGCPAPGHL
Chain of Fibronectin (P02751 32-2477): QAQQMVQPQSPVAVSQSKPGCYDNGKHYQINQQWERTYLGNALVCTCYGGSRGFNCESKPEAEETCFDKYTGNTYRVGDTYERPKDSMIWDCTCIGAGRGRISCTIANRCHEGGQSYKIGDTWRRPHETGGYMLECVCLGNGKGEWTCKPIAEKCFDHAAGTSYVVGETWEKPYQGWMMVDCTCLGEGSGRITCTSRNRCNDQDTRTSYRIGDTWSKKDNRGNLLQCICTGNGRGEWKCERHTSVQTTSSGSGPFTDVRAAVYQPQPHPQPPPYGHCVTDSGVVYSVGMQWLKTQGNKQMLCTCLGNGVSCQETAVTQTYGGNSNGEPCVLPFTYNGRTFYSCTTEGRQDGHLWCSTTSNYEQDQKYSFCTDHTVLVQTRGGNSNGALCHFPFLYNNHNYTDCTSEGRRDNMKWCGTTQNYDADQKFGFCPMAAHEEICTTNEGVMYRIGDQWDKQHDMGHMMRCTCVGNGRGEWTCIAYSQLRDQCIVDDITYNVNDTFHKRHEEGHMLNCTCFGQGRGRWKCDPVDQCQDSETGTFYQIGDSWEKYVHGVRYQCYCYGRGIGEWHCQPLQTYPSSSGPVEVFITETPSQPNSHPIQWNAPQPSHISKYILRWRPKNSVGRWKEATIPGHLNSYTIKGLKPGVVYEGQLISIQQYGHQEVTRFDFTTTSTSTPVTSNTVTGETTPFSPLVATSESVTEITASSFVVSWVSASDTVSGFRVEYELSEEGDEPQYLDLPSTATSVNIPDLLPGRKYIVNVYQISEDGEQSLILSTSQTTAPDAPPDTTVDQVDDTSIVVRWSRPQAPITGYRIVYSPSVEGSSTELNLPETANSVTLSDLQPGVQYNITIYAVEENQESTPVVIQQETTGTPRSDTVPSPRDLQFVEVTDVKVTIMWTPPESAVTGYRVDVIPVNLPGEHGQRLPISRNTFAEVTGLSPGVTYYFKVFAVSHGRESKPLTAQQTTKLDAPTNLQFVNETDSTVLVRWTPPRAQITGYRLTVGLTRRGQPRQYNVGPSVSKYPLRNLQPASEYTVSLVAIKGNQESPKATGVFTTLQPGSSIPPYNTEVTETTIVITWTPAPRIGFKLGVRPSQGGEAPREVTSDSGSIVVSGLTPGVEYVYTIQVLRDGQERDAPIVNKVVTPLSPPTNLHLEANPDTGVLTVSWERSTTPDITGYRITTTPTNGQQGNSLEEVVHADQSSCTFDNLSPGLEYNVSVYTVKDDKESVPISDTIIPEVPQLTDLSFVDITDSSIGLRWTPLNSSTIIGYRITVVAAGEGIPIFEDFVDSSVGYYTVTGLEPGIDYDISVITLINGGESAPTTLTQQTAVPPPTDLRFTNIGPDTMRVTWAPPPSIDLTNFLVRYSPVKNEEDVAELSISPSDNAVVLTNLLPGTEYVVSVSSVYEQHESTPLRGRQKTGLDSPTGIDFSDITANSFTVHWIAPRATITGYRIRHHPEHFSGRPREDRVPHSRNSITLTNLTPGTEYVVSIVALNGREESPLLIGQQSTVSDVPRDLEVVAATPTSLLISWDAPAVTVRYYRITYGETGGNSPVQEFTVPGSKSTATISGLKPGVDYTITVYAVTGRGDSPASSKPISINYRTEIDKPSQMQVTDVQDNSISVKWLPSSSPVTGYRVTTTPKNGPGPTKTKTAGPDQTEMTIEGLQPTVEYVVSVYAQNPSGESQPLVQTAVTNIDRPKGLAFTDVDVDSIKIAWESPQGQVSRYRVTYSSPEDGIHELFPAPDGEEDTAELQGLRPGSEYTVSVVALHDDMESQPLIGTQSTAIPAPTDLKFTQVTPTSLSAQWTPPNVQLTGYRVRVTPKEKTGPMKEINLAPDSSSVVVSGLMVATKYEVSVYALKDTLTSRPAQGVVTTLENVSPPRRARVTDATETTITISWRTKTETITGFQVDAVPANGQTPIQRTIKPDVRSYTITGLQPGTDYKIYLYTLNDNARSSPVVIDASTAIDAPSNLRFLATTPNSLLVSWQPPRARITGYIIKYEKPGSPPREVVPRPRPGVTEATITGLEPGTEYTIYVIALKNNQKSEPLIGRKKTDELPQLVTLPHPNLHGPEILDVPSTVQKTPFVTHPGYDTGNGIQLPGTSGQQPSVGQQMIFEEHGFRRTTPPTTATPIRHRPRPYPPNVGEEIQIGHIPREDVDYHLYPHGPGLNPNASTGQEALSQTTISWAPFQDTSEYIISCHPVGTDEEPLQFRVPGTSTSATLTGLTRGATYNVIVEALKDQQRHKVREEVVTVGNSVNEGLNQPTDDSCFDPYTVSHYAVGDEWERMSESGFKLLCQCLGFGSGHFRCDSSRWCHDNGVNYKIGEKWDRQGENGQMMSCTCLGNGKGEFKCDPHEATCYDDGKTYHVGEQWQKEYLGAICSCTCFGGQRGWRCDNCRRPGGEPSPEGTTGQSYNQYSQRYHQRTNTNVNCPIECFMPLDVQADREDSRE

B1: human PDGF-BB-PlGF2123-144 (ligand)
chain: SLGSLTIAEPAMIAECKTRTEVFEISRRLIDRTNANFLVWPPCVEVQRCSGCCNNRNVQCRPTQVQLRPVQVRKIEIVRKKPIFKKATVTLEDHLACKCETVAAARPVTRRRPKGRGKRRREKQRPTDCHL
A word on the Kd: it is the equilibrium constant for the complex coming apart. The low end stands for a tighter complex, the high end for a looser complex. Turning to B1, the Kd was determined as 3.2 nM with Fibrinogen; 3.3 nM in the experiment with Osteopontin; 1.2 nM in the experiment with Vitronectin; 4.5 nM with Fibronectin; 6.3 nM with Tenascin C.

B2: human BMP-2-PlGF2123-144* (ligand)
chain: QAKHKQRKRLKSSCKRHPLYVDFSDVGWNDWIVAPPGYHAFYCHGECPFPLADHLNSTNHAIVQTLVNSVNSKIPKACCVPTELSAISMLYLDENEKVVLKNYQDMVVEGCGCRRRPKGRGKRRREKQRPTDSHL
As to B2, the Kd in the experiment with Fibrinogen was determined as 2 nM; with Osteopontin, 11.2 nM; with Vitronectin, 2.4 nM; with Fibronectin, 5.2 nM; in the experiment with Tenascin C, 6.9 nM.

B3: human BMP-2 (ligand)
chain: QAKHKQRKRLKSSCKRHPLYVDFSDVGWNDWIVAPPGYHAFYCHGECPFPLADHLNSTNHAIVQTLVNSVNSKIPKACCVPTELSAISMLYLDENEKVVLKNYQDMVVEGCGCR
For the molecule B3, the Kd in the experiment with Fibrinogen was 47.1 nM; with Vitronectin it was 94.7 nM; with Fibronectin, 19.2 nM; with Tenascin C it was 25.5 nM.
